Measurements as given in CN110885376A (SHANGHAI NOVAMAB BIOPHARMACEUTICALS CO LTD, dated 2020).

Target: T1, CD20 (UniProt P11836 1-297, limits assumed)
T1 construct: whole, on cells; Endogenous CD20 of Raji cells; also called 白细胞分化抗原20; 细胞表面CD20
T1 sequence (looked up): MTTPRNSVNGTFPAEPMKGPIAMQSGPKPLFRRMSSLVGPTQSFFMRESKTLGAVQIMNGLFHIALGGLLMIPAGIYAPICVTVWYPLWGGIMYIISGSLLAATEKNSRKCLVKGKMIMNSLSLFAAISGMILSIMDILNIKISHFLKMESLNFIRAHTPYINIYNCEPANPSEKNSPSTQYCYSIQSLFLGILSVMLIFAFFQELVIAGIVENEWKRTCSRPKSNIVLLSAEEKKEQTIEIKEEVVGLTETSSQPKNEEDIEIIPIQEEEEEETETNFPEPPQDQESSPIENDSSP
Assay: flow cytometry on Raji cells (CD47 first blocked with Nb1902), anti-hFc-FITC

EC50: 5.67 µg/mL
B1: 利妥昔单抗 (antibody, human IgG1, kappa, L234A L235A, V domains shown)
VH: QVQLQQPGAELVKPGASVKMSCKASGYTFTSYNMHWVKQTPGRGLEWIGAIYPGNGDTSYNQKFKGKATLTADKSSSTAYMQLSSLTSEDSAVYYCARSTYYGGDWYFNVWGAGTTVTVSA
VL: QIVLSQSPAILSASPGEKVTMTCRASSSVSYIHWFQQKPGSSPKPWIYATSNLASGVPVRFSGSGSGTSYSLTISRVEAEDAATYYCQQWTSNPPTFGGGTKLEIKR
notes: also called 对照抗体利妥昔; rituximab
